According to patent US20220396612A1 (UNIVERSIT DE TOURS, published 2022):

T1: virus-like particles (VLPs) of BK polyomavirus VP-1 protein, serotype Ia (BK virus (BKPyV), serotype Ia, UniProt P03088 1-361)
T1 construct: self-assembled native VLPs coated on ELISA plates; also called VLP Ia; BKV VP-1, serotype Ia
T1 chain: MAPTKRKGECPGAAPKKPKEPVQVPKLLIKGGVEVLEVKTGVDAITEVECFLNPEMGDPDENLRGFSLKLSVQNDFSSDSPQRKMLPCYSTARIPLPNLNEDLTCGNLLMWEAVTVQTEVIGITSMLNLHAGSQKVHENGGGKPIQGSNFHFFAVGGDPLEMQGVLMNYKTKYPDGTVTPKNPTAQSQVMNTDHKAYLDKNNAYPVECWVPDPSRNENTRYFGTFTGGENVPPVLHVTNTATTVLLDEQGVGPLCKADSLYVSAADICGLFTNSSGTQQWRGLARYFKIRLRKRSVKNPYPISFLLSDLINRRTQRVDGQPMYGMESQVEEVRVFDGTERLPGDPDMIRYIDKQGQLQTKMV

T2: virus-like particles (VLPs) of BK polyomavirus VP-1 protein, serotype IV (BK virus (BKPyV), serotype IV, UniProt P14996 1-362)
T2 construct: native VLPs; also called VLP IV
T2 chain: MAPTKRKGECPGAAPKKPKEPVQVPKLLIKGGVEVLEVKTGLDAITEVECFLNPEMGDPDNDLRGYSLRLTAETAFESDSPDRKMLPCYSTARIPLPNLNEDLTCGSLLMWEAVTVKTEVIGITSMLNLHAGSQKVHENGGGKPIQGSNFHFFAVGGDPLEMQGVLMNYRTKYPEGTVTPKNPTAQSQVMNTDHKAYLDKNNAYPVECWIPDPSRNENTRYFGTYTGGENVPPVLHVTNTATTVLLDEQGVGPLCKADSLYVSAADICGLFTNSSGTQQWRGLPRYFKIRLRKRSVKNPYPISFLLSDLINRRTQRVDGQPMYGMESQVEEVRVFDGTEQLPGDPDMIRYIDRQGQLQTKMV

T3: virus-like particles (VLPs) of BK polyomavirus VP-1 protein, serotype Ib2 (BK virus (BKPyV), serotype Ib2, PA …, UniProt P03088 1-362)
T3 construct: native VLPs; also the immunogen; also called VLP Ib2; BK Ib2
T3 chain: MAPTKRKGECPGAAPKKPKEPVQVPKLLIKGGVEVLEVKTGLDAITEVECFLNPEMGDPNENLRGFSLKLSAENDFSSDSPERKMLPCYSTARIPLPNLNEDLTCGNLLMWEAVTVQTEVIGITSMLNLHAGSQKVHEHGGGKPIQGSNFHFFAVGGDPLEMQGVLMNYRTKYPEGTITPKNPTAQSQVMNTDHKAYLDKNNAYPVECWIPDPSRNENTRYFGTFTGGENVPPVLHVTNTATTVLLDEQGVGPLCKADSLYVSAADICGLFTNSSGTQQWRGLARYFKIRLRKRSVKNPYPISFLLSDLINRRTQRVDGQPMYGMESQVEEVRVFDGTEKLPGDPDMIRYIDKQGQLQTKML

T4: virus-like particles (VLPs) of BK polyomavirus VP-1 protein, serotype II (BK virus (BKPyV), serotype II, UniProt P14996 1-362)
T4 construct: native VLPs; also called VLP II
T4 chain: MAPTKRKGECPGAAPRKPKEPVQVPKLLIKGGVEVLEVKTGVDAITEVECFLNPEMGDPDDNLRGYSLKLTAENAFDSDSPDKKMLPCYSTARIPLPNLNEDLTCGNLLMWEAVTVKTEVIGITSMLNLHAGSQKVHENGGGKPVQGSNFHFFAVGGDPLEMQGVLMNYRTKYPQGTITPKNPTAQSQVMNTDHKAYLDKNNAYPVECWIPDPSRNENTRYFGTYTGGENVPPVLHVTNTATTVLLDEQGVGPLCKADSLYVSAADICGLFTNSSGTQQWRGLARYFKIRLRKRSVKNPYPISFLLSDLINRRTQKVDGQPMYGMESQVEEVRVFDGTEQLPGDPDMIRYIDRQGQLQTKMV

B1: monoclonal antibody ‘H6’ secreted by clone BK6A2H6 (antibody, V domains shown)
VH: EVQLQQSGPELVKPGASVKISCKASGYSFTGYFMNWVKQSHGKSLEWIGRINPYNGDTFYNQKFKGKATLTVDKSSSTAHMELLSLTSEDSAVYYCGSYYYGDYFDYWGQGTTLTVSS
VL: SIVMTQIPKFLLVSEGDRVTITCKASQSVSNDVAWYQQKSGQSPKLLIYYASNRYTGVPDRFTGSGYGTDFTFTISTVQAEDLAVYFCQQDYSSPLTFGAGTKLELKR
B2: monoclonal antibody ‘F6’ secreted by clone BK6A2F6 (antibody)
heavy: EVQLQQSGPELVKPGASVKISCKASGYSFTGYFMNWVKQSHGKSLEWIGRINPYNGDTFYNQKFKGKATLTVDKSSSTAHMELLSLTSEDSAVYYCGSYYYGDYFDYWGQGTTLTVSSAKTTPPSVYPLAPGSAAQTNSMVTLGCLVKGYFPEPVTVTWNSGSLSSGVHTFPAVLQSDLYTLSSSVTVPSSTWPSETVTCNVAHPASSTKVDKKIVPRDCGCKPCICTVPEVSSVFIFPPKPKDVLTITLTPKVTCVVVDISKDDPEVQFSWFVDDVEVHTAQTQPREEQFNSTFRSVSELPIMHQDWLNGKEFKCRVNSAAFPAPIEKTISKTKGRPKAPQVYTIPPPKEQMAKDKVSLTCMITDFFPEDITVEWQWNGQPAENYKNTQPIMDTDGSYFVYSKLNVQKSNWEAGNTFTCSVLHEGLHNHHTEKSLSHSPGK
light: […]

Legend:
[1] = molecular target: T1, virus-like particles (VLPs) of BK …; assay: ELISA on coated VLP; supernatant 1/20 480
Procedure: (§1) To do this, the VLPs produced were deposited at a concentration of 1 μg/mL in PBS and incubated overnight at +4° C. The wells were then blocked for 1 h at +37° C. with a PBS/FCS (phosphate-buffered saline/fetal calf serum) mixture. After dilution in a dilution buffer containing FCS, PBS and Tween® 20, the various hybridoma culture supernatants were added for 1 h at +37° C. The wells were washed four times in a row with Wash Buffer and a secondary anti-mouse antibody coupled to peroxidase was added to the 1:2000 dilution for 1 h at +37° C. The wells were washed four more times and the substrate (OPD (ortho phenylene diamine)+H₂O₂) was added for 30 min at room temperature. A stop solution (H₂SO₄ 4N) was then added and each well was read by measuring the absorbance at 492 nm with a spectrophotometer. The value obtained for the average of the control wells (PBS in the first step) is subtracted from the optical density values obtained for each well.

[2] = molecular target: T2, virus-like particles (VLPs) of BK …; assay: ELISA on coated VLP; supernatant 1/320
Procedure: as §1

[3] = molecular target: T3, virus-like particles (VLPs) of BK …; assay: ELISA on coated VLP; supernatant 1/320
Procedure: as §1

[4] = molecular target: T1, virus-like particles (VLPs) of BK …; assay: ELISA on coated VLP; supernatant 1/320
Procedure: as §1

[5] = molecular target: T4, virus-like particles (VLPs) of BK …; assay: ELISA on coated VLP; supernatant 1/320
Procedure: as §1

[6] = molecular target: T2, virus-like particles (VLPs) of BK …; assay: ELISA on coated VLP; supernatant 1/5 120
Procedure: as §1

[7] = molecular target: T3, virus-like particles (VLPs) of BK …; assay: ELISA on coated VLP; supernatant 1/5 120
Procedure: as §1

[8] = molecular target: T1, virus-like particles (VLPs) of BK …; assay: ELISA on coated VLP; supernatant 1/5 120
Procedure: as §1

[9] = molecular target: T4, virus-like particles (VLPs) of BK …; assay: ELISA on coated VLP; supernatant 1/5 120
Procedure: as §1

[10] = molecular target: T2, virus-like particles (VLPs) of BK …; assay: ELISA on coated VLP; supernatant 1/1 280
Procedure: as §1

[11] = molecular target: T3, virus-like particles (VLPs) of BK …; assay: ELISA on coated VLP; supernatant 1/1 280
Procedure: as §1

[12] = molecular target: T1, virus-like particles (VLPs) of BK …; assay: ELISA on coated VLP; supernatant 1/1 280
Procedure: as §1

[13] = molecular target: T4, virus-like particles (VLPs) of BK …; assay: ELISA on coated VLP; supernatant 1/1 280
Procedure: as §1

Binder | OD 492 nm [1] [OD] | OD 492 nm [2] [OD] | OD 492 nm [3] [OD] | OD 492 nm [4] [OD] | OD 492 nm [5] [OD] | OD 492 nm [6] [OD] | OD 492 nm [7] [OD] | OD 492 nm [8] [OD] | OD 492 nm [9] [OD] | OD 492 nm [10] [OD] | OD 492 nm [11] [OD] | OD 492 nm [12] [OD] | OD 492 nm [13] [OD]
B1 | 0.16 | 2.66 | 0.29 | 3.03 | 0.13 | 0.26 | 0.09 | 0.86 | 0.05 | 0.91 | 0.14 | 0.81 | 0.08
B2 | 0.27 | 3.16 | 0.29 | 3.16 | 0.16 | 0.77 | 0.08 | 0.57 | 0.07 | 2.04 | 0.11 | 2.11 | 0.09
